B1: HDV Ribozyme (parent)
chain: GGCCGGCAUGGUCCCAGCCUCCUCGCUGGCGCCGGCUGGGCAACAUUCCGAGGGGACCGUCCCCUCGGUAAUGGCGAAUGGGACCCA

The variants in this series derive from B1. Kind of series: self-cleavage, relative activity (ratio to wild type); higher = more cleavage; co-transcriptional.
For the variant C7A C33A, the self-cleavage was 0.0639. For G34U U47C, the self-cleavage came to 0.234. The figure for G39U G74U is 0.382. G1U G67U: the self-cleavage amounted to 0.332. Regarding A8C G82C, the self-cleavage turned out to be 0.0923. G52A A56U: the self-cleavage is 1.1.

For G28C A42C, the self-cleavage is 0.0437. As for C21G U79G, the self-cleavage came out at 0.0554. Consider G34U A71C, for which the self-cleavage was determined as 0.161. The figure for G73A C84A is 0.564. With A42C C49G, the self-cleavage turned out to be 0.178.

Consider G31U C85G, for which the self-cleavage is 0.481. For the variant G5U C57A, the self-cleavage is 0.383. For the variant G11C U79C, the self-cleavage came to 0.121. In the case of C15G U69C, the self-cleavage turned out to be 0.65.

For U47C G74U, the self-cleavage was 0.633. Then C15A G31U, with 0.0339; and G1C C30A, with 0.104. As for A43U C62G, the self-cleavage worked out at 0.332.

Regarding U23G C61G, the self-cleavage was 0.628.

With G6A C84U, the self-cleavage is 0.628. On to G50A G67U, for which the self-cleavage came to 1.06. For the variant G6C C21A, the self-cleavage stood at 0. In the case of U12A U69G, the self-cleavage was found to be 0.795. For the variant C32U U69G, the self-cleavage turned out to be 0.852. Turning to C24G C85G, the self-cleavage was 0.125.

U20A U79G: the self-cleavage is 0.0665.

For the variant G1A G53U, the self-cleavage was found to be 0.0386. Consider C30U C63U, for which the self-cleavage was 0.581. For C30U C63A, the self-cleavage turned out to be 0.466.

Consider C13U G50U, for which the self-cleavage came to 0.642.

Consider C36A G39A, for which the self-cleavage was found to be 0.113.

G10A G50C: the self-cleavage turned out to be 0.513. As for G38C C62U, the self-cleavage was 0.197. Consider A43U A78G, for which the self-cleavage amounted to 0.262. On to C33U G34U, for which the self-cleavage is 0.219.

Take G17A G38U: the self-cleavage came out at 0.1. Then C4A G52U, with 0.213; and C41A U69G, with 0.975.

For the variant G55C C58G, the self-cleavage was determined as 1.11.

In the case of C4A U9G, the self-cleavage was found to be 0.383. The figure for U12A C15U is 0.138; for C32A G52A it is 0.302. With U12C G53C, the self-cleavage was 0.332. As to A56U A71U, the self-cleavage is 0.864. Consider G1A C63G, for which the self-cleavage amounted to 0.249.

With C21A C75U, the self-cleavage worked out at 0.0297. Turning to U12G G38C, the self-cleavage worked out at 0.178. As for G11A G54U, the self-cleavage was found to be 0.391.

Consider C33A G39A, for which the self-cleavage was determined as 0.162.

Take U23A C61G: the self-cleavage amounted to 1.08. G50C C57U: the self-cleavage amounted to 1.04.

With C24U U60C, the self-cleavage came out at 0.752. As for C3A A78G, the self-cleavage turned out to be 0.119. With U27A G59C, the self-cleavage is 0.939. In the case of C44G C86U, the self-cleavage was determined as 0.897. Consider U37G C62G, for which the self-cleavage came to 0.0791. With G6A U47A, the self-cleavage is 0.35. The figure for U47A G53U is 0.755; for A77C C84U it is 0.326; for C15G C21A it is 0.0707. The figure for G17C G74U is 0.0554.

For the variant G55U U60C, the self-cleavage amounted to 1.11. Consider U20C G81U, for which the self-cleavage is 0. For C7G A87U, the self-cleavage was determined as 0.284. Turning to G67U U72A, the self-cleavage stood at 0.665. For C22G C64U, the self-cleavage worked out at 0.0536. With A56C G82A, the self-cleavage stood at 0.684. In the case of A8C A56U, the self-cleavage is 1. The figure for A8C A71G is 0.772; for U65C G73U it is 0.554; for U23C G55A it is 0.814. For the variant C33A C66U, the self-cleavage was determined as 0.241. Then A56U A78U, with 0.0573; and G1U U60G, with 0.443; and G54A A78G, with 0.332. For the variant C3A G38A, the self-cleavage turned out to be 0.124. Consider C21U C26A, for which the self-cleavage stood at 0.383.

In the case of U37G U65A, the self-cleavage came out at 0.101. Take G34A C61A: the self-cleavage is 0.302. Then C7U A51U, with 1.13; and A8C C32G, with 0.185. As to G55A C66G, the self-cleavage amounted to 0.843. Take C41A G59A: the self-cleavage turned out to be 0.844. Consider G29A G38A, for which the self-cleavage is 0.0623. Then G5U C33G, with 0.65; and G34U G76U, with 0.132; and C22U C36A, with 0.0739. U27A C41U: the self-cleavage was determined as 1.07.

Take G28A G53C: the self-cleavage was found to be 0.0831.

On to G34U C62A, for which the self-cleavage was 0.0831. Take A70C G80C: the self-cleavage came out at 0.135.

In the case of U20A C33U, the self-cleavage is 0. Regarding G2A G82A, the self-cleavage was determined as 0.0852. With G2A G82U, the self-cleavage amounted to 0.0468. The figure for C14G G29C is 0.0665; for A16G U27A it is 0.703. Take G74U G82A: the self-cleavage came out at 0.217. For G10C G81A, the self-cleavage came out at 0.131.

Consider C7U C30U, for which the self-cleavage came out at 0.483. On to C49G G81U, for which the self-cleavage stood at 0.205. Regarding U46A G73C, the self-cleavage was found to be 0.317. C7A C48G: the self-cleavage is 0.462.

Take C7G G11A: the self-cleavage was found to be 0.0346. With G1A C58G, the self-cleavage was 0.0665. For the variant G82U A83U, the self-cleavage stood at 0.289. Take A70G G74A: the self-cleavage was determined as 0.453. Consider A43U C63A, for which the self-cleavage turned out to be 0.716. Regarding G34U G55U, the self-cleavage was 0.105. As for G2C C7U, the self-cleavage stood at 0.089. The figure for C30U G59A is 0.878; for G25C G55U it is 0.089. As to C32G U72C, the self-cleavage came to 0.104. The figure for G59U A87G is 0.993; for C49A it is 0.965; for U9C C63G it is 0.831. For the variant A16U C44U, the self-cleavage was 0.6. The figure for C48U G54U is 1.02.

Regarding A45U U46C, the self-cleavage was determined as 0.665. Consider C7U G17C, for which the self-cleavage came to 0. With G35U C62G, the self-cleavage worked out at 0.259. Then G2C U79A, with 0.133. Then G17A C18A, with 0.252; and C4G U23G, with 0.0386; and G17C G50U, with 0.332. In the case of G34U U46C, the self-cleavage amounted to 0.161. Consider G5U A42C, for which the self-cleavage amounted to 0.178.

Regarding C18A C21A, the self-cleavage stood at 0.125.

As for C13U G59C, the self-cleavage was 0.587. For the variant C18G C41G, the self-cleavage was 0.266. For the variant U20C U37A, the self-cleavage was determined as 0.107. For the variant G35C C62G, the self-cleavage amounted to 0.0594. For the variant C15G G39U, the self-cleavage turned out to be 0.128. On to C24A C57U, for which the self-cleavage was found to be 0.727.

Regarding C15U A43G, the self-cleavage worked out at 0.138.

With A16G G40C, the self-cleavage was found to be 0.135. Consider G5C U37C, for which the self-cleavage came to 0.161. For U47G C57A, the self-cleavage was 1.22. For U47G C57G, the self-cleavage stood at 1.22. As for C22A U60A, the self-cleavage turned out to be 0.326. In the case of G54A G67A, the self-cleavage stood at 0.698.

Take C19A C44G: the self-cleavage amounted to 0.0615. Regarding G6C G28C, the self-cleavage came to 0. Then G28A C30G, with 0.117.

As for G28C C30A, the self-cleavage came to 0.

Regarding C30G C63G, the self-cleavage turned out to be 0.0923. Take C48U G50A: the self-cleavage worked out at 0.888. For G31A G55C, the self-cleavage was 0.475. In the case of C14A G76U, the self-cleavage turned out to be 1.27. With C15U C21G, the self-cleavage was 0.0898.

As for A43U G59U, the self-cleavage is 0.783. For the variant G11A A16U, the self-cleavage worked out at 0.723.

G28C G31U: the self-cleavage is 0.244. As for G6C G55C, the self-cleavage was determined as 0.308. Then G11A A87C, with 0.521.

C44U A70G: the self-cleavage stood at 0.793. The figure for U20G G74U is 0; for C18A C75G it is 0.133. Consider C58A C62A, for which the self-cleavage amounted to 1.26.

As to U47A U65A, the self-cleavage came out at 1.07.

Consider C33G C64G, for which the self-cleavage is 0.156. G59U A77G: the self-cleavage is 0.847. In the case of G6C G76A, the self-cleavage was 0.297. Consider G5U U47C, for which the self-cleavage is 0.185. Take G35C A78C: the self-cleavage came out at 0.0519. G29U A43U: the self-cleavage was 0.095. G25C C62G: the self-cleavage came out at 0.0615.
